Assay results published in patent publication US20240343803A1 (SHANDONG SIMCERE BIOPHARMACEUTICAL, published 2024).

Key:
[1] = biological target: T1, full-length human TIGIT on CHO-K1 cells (CHO-K1 human TIGIT) (human, UniProt Q495A1 22-244); test: FACS, low expression strain
T1 construct: NCBI XP_024309156.1; entry includes the signal peptide; also called high expression strain 1D2; medium expression strain 2D10
T1 sequence: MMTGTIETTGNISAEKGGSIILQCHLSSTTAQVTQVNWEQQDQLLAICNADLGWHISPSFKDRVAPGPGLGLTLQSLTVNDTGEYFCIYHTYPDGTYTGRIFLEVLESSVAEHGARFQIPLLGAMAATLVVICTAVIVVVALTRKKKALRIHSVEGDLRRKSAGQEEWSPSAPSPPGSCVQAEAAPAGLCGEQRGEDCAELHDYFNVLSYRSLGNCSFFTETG
Method: The collected cells were washed once with PBS (Hyclone, CAT #SH30256), resuspended to 2×10⁵/50 μL with 1% BSA-PBS. The antibodies were diluted to 80 nM with 1% BSA-PBS (diluted by 3-fold serial dilution for 12 concentration points). The 50 μL cells were then mixed with 50 μL diluted antibodies, and then incubated at 4° C. for 60 minutes. […] After washing twice with PBS, the cell samples were resuspended with 1% BSA-PBS, 100 μL/well and then analyzed by flow cytometry (BD, Canto II). […] [0298] (c) The effect of anti-TIGIT chimeric antibodies blocking the interaction between Bio-CD155-His and CHO-K1 human TIGIT high expression cell strains detected by FACS

[2] = biological target: T1, full-length human TIGIT on CHO-K1 cells …; test: FACS, competition: Bio-CD155-His to CHO-K1 human TIGIT
Method: The collected cells were washed once with PBS (Hyclone, CAT #SH30256), resuspended to 2×10⁵/40 μL with 1% BSA-PBS. The antibodies were diluted to 210 nM with 1% BSA-PBS (diluted by 3-fold serial dilution for 12 concentration points). […] The 40 μL cells were then mixed with 40 μL diluted antibodies and 40 μL diluted Bio-CD155-His, and then incubated at 4° C. for 60 minutes. The cells were washed twice with PBS, resuspended with APC labeled streptavidin (dilution ratio 1:1700, Biolegend, 405243), 100 μL/well, and incubated at 4° C. for 40 minutes. The cell samples were washed twice with PBS, resuspended with 1% BSA-PBS, 100 μL/well and then analyzed by flow cytometry (BD, Canto II). […] [0300] (d) The effect of anti-TIGIT chimeric antibodies blocking the interaction between TIGIT ECD-mFc and CHO-K1 CD155 detected by FACS

[3] = biological target: T1, full-length human TIGIT on CHO-K1 cells …; test: FACS, CHO-K1 human TIGIT high expression strain
Method: The collected cells were washed once with PBS (Hyclone, Cat NO. SH30256), resuspended to 2×10⁵/50 μL with 1% BSA-PBS. The antibodies were diluted to 80 nM with 1% BSA-PBS (diluted by 3-fold serial dilution for 12 concentration points). The 50 μL cells were then mixed with 50 μL diluted antibodies, and then incubated at 4° C. for 60 minutes. […] After washing twice with PBS, the cell samples were resuspended with 1% BSA-PBS, 100 μL/well and then analyzed by flow cytometry (BD, Canto II).

[4] = biological target: T1, full-length human TIGIT on CHO-K1 cells …; test: competition FACS; blocked: Bio-CD155-His binding to CHO-K1 human TIGIT cells
Method: The collected cells were washed once with PBS (Hyclone, SH30256), resuspended to 2×10⁵/40 μL with 1% BSA-PBS. The antibodies were diluted to 210 nM with 1% BSA-PBS (diluted by 3-fold serial dilution for 12 concentration points). […] The 40 μL cells were then mixed with 40 μL diluted antibodies and 40 μL diluted Bio-CD155-His, and then incubated at 4° C. for 60 minutes. The cells were washed twice with PBS, resuspended with APC labeled streptavidin (dilution ratio 1:1700, Biolegend, 405243), 100 μL/well, and incubated at 4° C. for 40 minutes. The cell samples were washed twice with PBS, resuspended with 1% BSA-PBS (100 μL/well) and then analyzed by flow cytometry (BD, Canto II).

[5] = biological target: T2, Fusion protein of extracellular domain of human TIGIT and His-tag (human TIGIT ECD-his) (human); test: BIAcore; KD ratio to TIGIT-CHI-070
T2 chain: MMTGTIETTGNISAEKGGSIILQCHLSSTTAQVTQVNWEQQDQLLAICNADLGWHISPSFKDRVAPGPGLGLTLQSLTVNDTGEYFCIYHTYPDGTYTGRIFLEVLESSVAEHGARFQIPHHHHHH

[6] = biological target: T3, human PVRIG-mFc protein (Acro, PVG-H5253) (human, UniProt Q6DKI7 41-171, limits assumed); test: competition FACS; blocked: human PVRIG-mFc binding to CHO-K1-CD112 cells
T3 construct: bought reagent; also called PVRIG-ECD-mFc
T3 sequence (looked up): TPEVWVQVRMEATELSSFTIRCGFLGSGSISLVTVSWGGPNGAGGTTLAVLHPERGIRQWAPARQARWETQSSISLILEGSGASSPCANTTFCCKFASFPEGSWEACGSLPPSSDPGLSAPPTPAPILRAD
Procedure, shortened: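 In this competition flow cytometry assay, the IC50 was taken from the curve of mean fluorescence intensity against antibody dilution. Antibodies and human PVRIG-mFc were premixed at 4° C for 30 min, then incubated with Zombie violet-stained CHO-K1-CD112 cells for 30 min at 4° C. PE goat anti-mouse IgG Fc (1:250) detected bound PVRIG-mFc on a BD Canto II.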

B1: RG6058-hIgG1 (antibody, V domains shown)
VH: EVQLQQSGPGLVKPSQTLSLTCAISGDSVSSNSAAWNWIRQSPSRGLEWLGKTYYRFKWYSDYAVSVKGRITINPDTSKNQFSLQLNSVTPEDTAVFYCTRESTTYDLLAGPFDYWGQGTLVTVSS
VL: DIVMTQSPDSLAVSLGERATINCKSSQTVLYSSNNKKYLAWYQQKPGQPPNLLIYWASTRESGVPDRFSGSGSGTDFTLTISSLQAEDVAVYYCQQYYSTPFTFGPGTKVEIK
notes: human IgG1 format by its name; also called Roche RG6058; control antibody RG6058
EC50 [1]: 0.495 nM | IC50 [2]: 0.388 nM | EC50 (read off the curve) [3]: ~0.6 nM | IC50 (read off the curve) [4]: ~0.3 nM

B2: TIGIT-070-H1L1 (antibody, V domains shown)
VH: EVQLVQSGAEVKKPGASVKVSCKASGYTFTNYYMHWVRQAPGQRLEWMGRIDPDSGGSKYNEKFKSRVTITVDKSASTAYMELSSLRSEDTAVYYCAREGHYGFYSDYWGQGTTVTVSS
VL: DIQMTQSPSSLSASVGDRVTITCRVSENIYSYLAWYQQKPGKSPKLLIYNAKTLAEGVPSRFSGSGSGTDFTLTISSLQPEDFATYYCQHHYGNPLTFGPGTKVDIK
notes: Humanized anti-TIGIT antibody
Fold change vs chimeric antibodies (KD) [5]: 0.59 fold

B3: SRF813-hIgG1 (antibody, V domains shown)
VH: QVQLVQSGAEVKKPGSSVKVSCKASGGTFSSAAISWVRQAPGQGLEWMGNIIPIVGIANYAQKFQGRVTITADESTSTAYMELSSLRSEDTAVYYCARDTGRGYTRHFWFDPWGQGTLVTVSS
VL: DIQMTQSPSSLSASVGDRVTITCRASQSISSYLNWYQQKPGKAPKLLIYAASSLQSGVPSRFSGSGSGTDFTLTISSLQPEDFATYYCQQSDILYTFGGGTKVEIK
notes: human IgG1 format by its name
IC50 (read off the curve) [6]: ~1 nM
